B1: S100A9 (calgranulin B) (natural protein)
chain: TCKMSQLERNIETIINTFHQYSVKLGHPDTLNQGEFKELVRKDLQNFLKKENKNEKVIEHIMEDLDTNADKQLSFEEFIMLMARLTWASHEKMHEGDEGPGHHHKPGLGEGTP
notes: S100A9 (calgranulin B); construct His6-SUMO-S100A9 in pET28a, tag removed by SENP1; also called S100A9 subunit of calprotectin (CP); source: E. coli BL21(DE3), purified (Ni2+ Sepharose, SENP1 cleavage of His6-SUMO, second Ni2+ column, Superdex 75 SEC); not shown: His6, N-terminal, cleaved; SUMO, N-terminal, cleaved
B2: S100A8 (calgranulin A) (natural protein)
chain: MLTELEKALNSIIDVYHKYSLIKGNFHAVYRDDLKKLLETECPQYIRKKGADVWFKELDINTDGAVNFQEFLILVIKMGVAAHKKSHEESHKE
notes: S100A8 (calgranulin A); construct His6-SUMO-S100A8 in pET28a, tag removed by SENP1; also called S100A8 subunit of calprotectin (CP); source: E. coli BL21(DE3), purified (Ni2+ Sepharose, SENP1 cleavage of His6-SUMO, second Ni2+ column, Superdex 75 SEC); not shown: His6, N-terminal, cleaved; SUMO, N-terminal, cleaved

What was measured:
[1] = target: the molecule itself; experiment: dynamic light scattering; 100 uM S100A8, 100 uM S100A9, 50 uM CP; 50 mM HEPES pH 7.4; 8 °C; hydrodynamic radius compared with published radii of S100 dimers
S100A9 (calgranulin B) = target: B1; experiment: SEC; Tricorn 10/300 column with Superdex 75 prep grade, 50 mM HEPES pH 7.4, 1 mM EDTA, 1 mM TCEP, no calcium; CP formed from an equimolar mix of S100A8 and S100A9 by acid denaturation (pH 2.0-2.5), stepwise dialysis and anion exchange; conditions: both partners purified

binding result (S100A9 (calgranulin B))	Binder	binding result [1]
	B1	binds
binds	B2	binds
